Test [1] has as its target p53, endogenous in 93-VU-147T HNSCC cells (human (endogenous in 93-VU-147T)) (UniProt P04637). Nature of the test: co-IP.
For test [2], the target named is p53, endogenous in 92-VU-040T HNSCC cells (human (endogenous in 92-VU-040T)) (UniProt P04637). Kind of test: co-IP.

B1: PBF, HA-tagged (natural protein)
chain: QEPPGAACSQNTNKTCEECLKNVSCLWCNTNKACLDYPVTSVLPPASLCKLSSARWGVCWVNFEALIITMSVVGGTLLLGIAICCCCCCRRKRSRKPDRSEEKAMREREERRIRQEERRAEMKTRHDEIRKKYGLFKEENPYARFENN
On to B1, for which the results for the fold change of the binding to p53 in PTTG-depleted cells against Scr shRNA cells in test [1] and in test [2] were 3.6 fold and 4 fold, respectively.

The values above are taken from publication PMC6193540.
